From patent US20240301022A1 (published 2024) come the findings set out here.

The experiment concerns the target human β1-adrenergic receptor (human, UniProt P08588 1-477). Kind of experiment: radioligand saturation binding, transfected CHO-K1.

human β1-adrenergic receptor, sequence (P08588 whole entry): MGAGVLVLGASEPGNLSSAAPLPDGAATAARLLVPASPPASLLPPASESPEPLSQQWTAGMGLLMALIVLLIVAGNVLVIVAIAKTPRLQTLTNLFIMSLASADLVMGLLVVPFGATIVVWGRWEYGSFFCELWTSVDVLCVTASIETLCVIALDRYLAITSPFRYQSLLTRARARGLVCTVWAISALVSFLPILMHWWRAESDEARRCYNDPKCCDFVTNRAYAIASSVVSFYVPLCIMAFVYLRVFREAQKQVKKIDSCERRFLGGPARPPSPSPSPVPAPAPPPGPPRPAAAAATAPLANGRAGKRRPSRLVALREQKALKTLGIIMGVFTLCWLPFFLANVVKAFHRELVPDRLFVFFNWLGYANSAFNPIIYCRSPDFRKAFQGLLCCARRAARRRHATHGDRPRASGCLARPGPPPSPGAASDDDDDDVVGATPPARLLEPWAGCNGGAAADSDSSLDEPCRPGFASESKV

B1: recombinant human zinc-α2-glycoprotein (ZAG) (ligand)
chain: QENQDGRYSLTYIYTGLSKHVEDVPAFQALGSLNDLQFFRYNSKDRKSQPMGLWRQVEGMEDWKEDSQLQKAREDMETLKDIVEYYNDSNGSHVLQGRFGCEIENNRSSGAFWKYYYDGKDYIEFNKEIPAWVPFDPAAQITKQKWEAEPVYVQRAKAYLEEECPATLRKYLKYSKNILDRQDPPSVVVTSHQAPGEKKKLKCLAYDFYPGKIDVHWTRAGQVQEPELRGDVLHNGNGTYQSWVVVAVPPQDTAPYSCHVQHSSLAQPLVVPWEAS
modifications: 125I label (iodo bead labelling) in the membrane binding studies; labelled residues not stated
Regarding B1, binding was put at a Kd of 493 nM. This counts as sub-micromolar.
